Assay results taken from paper PMC6201368.

B1: SCN1Bβ/WT (Navβ1b, sodium channel beta1b subunit) [human] / Kv4.3 (KCND3/WT) [human] (parent)
chain 1: GGCVEVDSETEAVYGMTFKILCISCKRRSETNAETFTEWTFRQKGTEEFVKILRYENEVLQLEEDERFEGRVVWNGSRGTKDLQDLSIFITNVTYNHSGDYECHVYRLLFFENYEHNTSVVKKIHIEVVDKGESGAACPFTVTHRRARWRDRWQAVDRTGWLCAWPANRPQQRAEGEGSSPSCPLQLWPLFLSSPRRGQSMPVPHRRSGYRTQLCHLCCMTSGRCLLSLSQRVVLGLPGIIIRCVSRGVV
chain 2: MAAGVAAWLPFARAAAIGWMPVANCPMPLAPADKNKRQDELIVLNVSGRRFQTWRTTLERYPDTLLGSTEKEFFFNEDTKEYFFDRDPEVFRCVLNFYRTGKLHYPRYECISAYDDELAFYGILPEIIGDCCYEEYKDRKRENAERLMDDNDSENNQESMPSLSFRQTMWRAFENPHTSTLALVFYYVTGFFIAVSVITNVVETVPCGTVPGSKELPCGERYSVAFFCLDTACVMIFTVEYLLRLFAAPSRYRFIRSVMSIIDVVAIMPYYIGLVMTNNEDVSGAFVTLRVFRVFRIFKFSRHSQGLRILGYTLKSCASELGFLLFSLTMAIIIFATVMFYAEKGSSASKFTSIPASFWYTIVTMTTLGYGDMVPKTIAGKIFGSICSLSGVLVIALPVPVIVSNFSRIYHQNQRADKRRAQKKARLARIRVAKTGSSNAYLHSKRNGLLNEALELTGTPEEEHMGKTTSLIESQHHHLLHCLEKTTGLSYLVDDPLLSVRTSTIKNHEFIDEQMFEQNCMESSMQNYPSTRSPSLSSHPGLTTTCCSRRSKKTTHLPNSNLPATRLRSMQELSTIHIQGSEQPSLTTSRSSLNLKADDGLRPNCKTSQITTAIISIPTPPALTPEGESRPPPASPGPNTNIPSIASNVVKVSAL

Variants of: B1
Test: co-immunoprecipitation (IP anti-KCND3, immunoblot anti-SCN1Bβ), band quantification
Details: with Kv4.3 (KCND3/WT) [human]; HEK293 cells co-transfected with KCND3/WT and SCN1Bβ; parent: 1; read off a plot
A ratio to parent of 1.2 was found for chain 1 R232T in this work. A ratio to parent of 1 was found for chain 1 S230R in this work.
